Measurements published in the nanobody polyreactivity screen of Harvey et al. (2022).

assay: yeast display, Sf9 membrane polyspecificity reagent, FACS + sequencing; frameworks hold sequencing errors
Method in brief: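 In a synthetic yeast display library (Saccharomyces cerevisiae BJ5465), nanobody expression was induced with galactose for 36–48 hours. FACS gates were set low and high (top ~1%) using anti-HA fluorescence for expression and streptavidin fluorescence for binding of the Sf9 membrane reagent. Each polyreactivity label is drawn from the gate of origin.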

Sequence | polyreactivity (PSR sort gate)
QVQLVESGGGLVQAGGSLRFSCAASGLIFGSYTMGWSRQAPGKERELVAGISRGGGITYYADSVKGRFTISRDNAKNTVYLQMNSLKPEDTAVYYCAAGYFSYSPYGSYKFGYWGQGTQVTVSS | high polyreactivity
QVQLVESGGGLVQAGGSLRFSCAASGRIFRRYAMGWYRQAPGKERELVAAITQSGDSTYYADSVKGRFTISRDNAKNTVYLQMNSLKPEDTAVYYCAAAGGPYRYNYWGQGTQVTVSS | high polyreactivity
QVQLVESGGGLVQAGGSLRFSCAASGRIFSGNGMGWYRQAPGKEREFVAAIRFSSGSTYYADSVKGRFTISRDNAKNTVYLQMNSLKPEDTAVYYCARPSIPRRYDYWGQGTQVTVSS | high polyreactivity
QVQLVESGGGLVQAGGSLRFSCAASGRIFTPYAMGWYRQAPGKERELVAVIRDGSTYYADSVKGRFTISRDNAKNTVYLQMNSLKPEDTAVYYCRYDIWVWWSGAYDYWGQGTQVTVSS | low polyreactivity
QVQLVESGGGLVQAGGSLRFSCAASGRIFYLNAMGWYRQAPGKERELVAAISRSGGRTYYADSEKGRFTISRDNAKHTVYLQMNSLKPEDTAVYYCAADTAGATPERNYWGQGPQVTVSS | high polyreactivity
QVQLVESGGGLVQAGGSLRFSCAASGRISPSYAMGWNRKAPGKERELVAAIYRGGSTSYADSVKGRFTISRDNAKNNVYLQMNSLKPEDTAVYYCATRGPRYRYYYWGQGTQVTVSS | high polyreactivity
QVQLVESGGGLVQAGGSLRFSCAASGRTFYRYAMGWYRQAPGKERVLVAAISGSGGSTYYADSVKGRFTISRDNAKNTVYLQMNSLKPEDTAVYYCAADGPSHHGDDDYWGQGTQVTVSS | low polyreactivity
QVQLVESGGGLVQAGGSLRFSCAASGSICGGYAMGWYRQAPGKERELVASITKSGDSTYADSVKGRFTISRDNAKNTVYLQMNSLKPEDTAVYYSAADSTFGNFDYWGQGTQVTVSS | low polyreactivity
QVQLVESGGGLVQAGGSLRFSCAASGSTFQYYAMGWYRQAPGKEREFVAAIRSSGGTTYYADSVKGRFTLSRDNAKNTVYLQMNSLKPEDTAVYYCAATTKYNGRRSYFKFDYWGQGTQVTVSS | high polyreactivity
QVQLVESGGGLVQAGGSLRFSCAASGSTFTAYVMGWYRQAPGKERELVAAISRSGGRTYYADSVKGRFTISRDNAKKTVYLQMNSLKPEDTAVYYCAARSGPLAYDYWGQGTQVTVSS | high polyreactivity
QVQLVESGGGLVQAGGSLRFSCAASGSTFTVYAMGWYRQAPGQERELVAAITNGGRTYYADSVKGRFTISRDNAKNTVYLQMNSLKPEDTAVYYCAADVYYDDYLYDYWGQGTQVTVSS | high polyreactivity
QVQLVESGGGLVQAGGSLRFSCAASGSTISSNVMGWYRQAPGKERELVAAITKTGGRTYYADSVKGRFTISRDNAKNTVYLQMNSLKPEDTAFYYCAAKSKPRGTSSDYYYWGQGTQVTVSS | high polyreactivity
QVQLVESGGGLVQAGGSLRFSCAASGTFDYYDMGWYRQAPGKEWELVAGITSGGSTDYADSEKGRFTISRDNAKNTVYLQMNSLKPEDTAVYYCAADPFRIHTYDYWGQGTQVTVSS | low polyreactivity
QVQLVESGGGLVQAGGSLRFSCAASGTFVPYAMGWYRQAPGKEMELVARITWRGGSTYYADSVKGRFTISRDNAKNTVYLQMNSLKPEDTAVYYCATVSDNRYYYWGQGTQVTVSS | low polyreactivity
QVQLVESGGGLVQAGGSLRFSCADSGSIFRYAMGWYRQAPGKERELVAGMSASGGRTYYADSVKGRFTISRDNAKNTVYLQMNSLKPEDTAVYYCNAVTREYQRPPVPRSYLYDYWGQGTQVTVSS | high polyreactivity
QVQLVESGGGLVQAGGSLRFSCAPSGITFRFYAMGCYRQAPGKESEFVAAISSRGGRTYYADSVKGRFTISRDYAKNTVYLQMNSLKPEDTAVYYCAAGKIGRYHYDYWGQGTQVTVSS | high polyreactivity

Sequence | polyreactivity (PSR sort gate)
QVQLVESGGGLVQAGGSLRFSCPASGLIFYYYVMGWYRQAPGKEREFVAAIRYRSSSTYYADSVKGRFTISRVNAKNTVYLQMNSVKPEDTAVYYCGADIYTYNLFYHGRWLDYNYWGQGTQVTVSS | high polyreactivity
QVQLVESGGGLVQAGGSLRIICAASGRIFRENAMGWYRQAPGKAREWVAAISSGGSTYYADSVKGRFTISRDNAKNTDYLQMNSLKPEDPAVYYCAADLSWSRVVFGDYDYWGQGTHVTVSS | low polyreactivity
QVQLVESGGGLVQAGGSLRIICAASGRIFYSNGMGWYRQAPGKERELVAGITRGGSTNYADSVKGRFTISRDNAKNTVYLQMISLKPEDTAVFYCAANQLHYRPSRFVYYGYRLYDYWGHGTQVTVSS | low polyreactivity
QVQLVESGGGLVQAGGSLRIICAASGTTFVYNDMGWYRQAPGKEGELVAGITTSGGSTYYADSVKGRFTISRDNAKNTVYLQRNSLKPEDTAVYYWAAPAFSAWLEMDYWGQGTQVTVSS | low polyreactivity
QVQLVESGGGLVQAGGSLRISCAASGFIFFYAMGWYRQAPGKERELVASIDSGVSTDYADSVKGRLTISRDNAKNTVYLQMNSLKPEDNAVYYCAADPWSSLNYDYWGQGTQVTVSS | low polyreactivity
QVQLVESGGGLVQAGGSLRISCAASGFIFGPNAMGWYRQAPGKERELVAAISYSGGRTYYADSVKGRFTISRDNAKNTVYLQMNILKPEDTAVYYCAQPGRYWGQGTQVTVSS | high polyreactivity
QVQLVESGGGLVQAGGSLRISCAASGFIFIAYAMGWYRQAPGKERELVAAISKSGGNTYYADSVKGRFTISRDNAKNTVYLQMNSLKPEDTAVYYCATRPCYWRYEYWGQGTQVTVSA | high polyreactivity
QVQLVESGGGLVQAGGSLRISCAASGFIFRPNAMGWYRQAPGKERELVAAITRDGDRTYYADSVKGRFTISRDNAKNTVYLQMNSLKPEDTAVYYCAADVIQWWTRYYTWEYDYWGQGTQVTVSS | low polyreactivity
QVQLVESGGGLVQAGGSLRISCAASGFIFRYYAMGWYRQAPGKERELVARITNGGSTKYSDSVKGRFTISRDNAKTTVYLQMNSLKPEDTAVYYCNTDGLVRNGPFFSWGQGTQVTVSS | low polyreactivity
QVQLVESGGGLVQAGGSLRISCAASGFIFTSKAMGWHRQAPGKERELVAAITKSGGSTYYADSVKGRFTISRDNAKNTVYLQMNSLKPEDTAVYYCAAYPTSRYKYEYWGQGTQVTVSS | high polyreactivity
QVQLVESGGGLVQAGGSLRISCAASGFIFYSYPMGWYRQAPGKERELVAAISTSGGSTYYADSVKGRFTISRDNAKNTVYLQMNSLKPEDTAVYYCAVGRKFGRYRVPFVVPYEYWGHGTQVTVSS | high polyreactivity
QVQLVESGGGLVQAGGSLRISCAASGFILGYKDMGWYRQAPGKERELVAAISSSGGSTYYADSVKGRFTISRDNSKNTVYLQMNILKPEDTAVYYCGLPYQTSYGEYDYWGQGTQVTVSS | low polyreactivity
QVQLVESGGGLVQAGGSLRISCAASGFTFHTYAMGWYRQAPGKERELVAAIDSSGGITYYADSVKGRFTISRDNAKNTVYLQMTSLKPEDTAVYYCAAVFLLFGFEWSYDYWGQGTQVTVSS | low polyreactivity
QVQLVESGGGLVQAGGSLRISCAASGFTFNANAMAWYRQAPGKERELVAAISLSGGRTYYADSVKRRFTISRDNAKNTVYLQMNSMKQVDTAVYYCAASPDGSFRRFSRVVSGDYWGQGTQVTVSS | high polyreactivity
QVQLVESGGGLVQAGGSLRISCAASGFTFPSNAMGWYRQAPGKERELVAAITGGGRTYYADSVKGRFTISRDNAKNTVFFQMNSLKPEDTAVYYCNRPTRVHLTHYDYCGQGTQVTVSS | high polyreactivity
QVQLVESGGGLVQAGGSLRISCAASGFTFRSYAMGWYRQAPGKERELVAAISWRGGRTYYADSVKGRFTISRDNAKNTVYLQMNSLKPLDTAVYYCATDWYWGSYAPYTTRAHFDYWGQGTQVTVSS | high polyreactivity
